Reference: patent US12091446 (NATIONAL TECHNOLOGY AND ENGINEERING SOLUTIONS OF SANDIA, dated 2024)
Substitutions are numbered along the chain they refer to.

B1: BP2A3 Nb-huFc (Fc fusion)
chain: EVQLQASGGGFVQPGGSLRLSCAASGRTFSAYSMGWFRQAPGKEREFVSAISAGDGAASYYADSVKGRFTISRDNSKNTVYLQMNSLRAEDTATYYCAHYYTTSATLDYAYWGQGTQVTVSS
B2: AP1A5 Nb-huFc (Fc fusion)
chain: EVQLQASGGGFVQPGGSLRLSCAASGSTASHYTMGWFRQAPGKEREFVSAISSGRDHAKQYADSVKGRFTISRDNSKNTVYLQMNSLRAEDTATYYCAYEEINATQKDTLYWGQGTQVTVSS
B3: KP2C6 Nb-huFc (Fc fusion)
chain: EVQLQASGGGFVQPGGSLRLSCAASGRTFTSFHMGWFRQAPGKEREFVSAISSGDDGTQYYADSVKGRFTISRDNSKNTVYLQMNSLRAEDTATYYCAAYTTTTVPQYWGQGTQVTVSS
B4: KP1C9 Nb-huFc (Fc fusion)
chain: EVQLQASGGGFVQPGGSLRLSCAASGRTFDAYSMGWFRQAPGKEREFVSAISSWSDDWTAYADSVKGRFTISRDNSKNTVYLQMNSLRAEDTATYYCALQNTKEDRLYWGQGTQVTVSS
B5: AP1C3 Nb-huFc (Fc fusion)
chain: B4 chain with F29Y, D30R, A31G, L99W, N101Y, T102I, K103D, D105I, R106Q, L107Y
B6: BP1A10 Nb-huFc (Fc fusion)
chain: EVQLQASGGGFVQPGGSLRLSCAASGQPSDRYIMGWFRQAPGKEREFVSAISQGAANKTAYADSVKGRFTISRDNSKNTVYLQMNSLRAEDTATYYCATHFNWQNYSYWGQGTQVTVSS
B7: AP1D4 Nb-huFc (Fc fusion)
chain: EVQLQASGGGFVQPGGSLRLSCAASGHTFDAHRMGWFRQAPGKEREFVSAISSWGQSSTYYADSVKGRFTISRDNSKNTVYLQMNSLRAEDTATYYCAQTDEGNQYVYWGQGTQVTVSS
B8: BP1B1 Nb-huFc (Fc fusion)
chain: EVQLQASGGGFVQPGGSLRLSCAASGRTFSGYIMGWFRQAPGKEREFVSAISQGDSYASYYADSVKGRFTISRDNSKNTVYLQMNSLRAEDTATYYCALYDINTVPYYWGQGTQVTVSS
B9: AP1B6 Nb-huFc (Fc fusion)
chain: EVQLQASGGGFVQPGGSLRLSCAASGSAFQIYAMGWFRQAPGKEREFVSAISSTDSETDHYADSVKGRFTISRDNSKNTVYLQMNSLRAEDTATYYCAVNGFDYAHSKAGPQVYWGQGTQVTVSS
B10: DP4F2 Nb-huFc (Fc fusion)
chain: EVQLQASGGGFVQPGGSLRLSCAASGTTYSERVMGWFRQAPGKEREFVSAISSGQSDQTYYYADSVKGRFTISRDNSKNTVYLQMNSLRAEDTATYYCAPFAGDANLPREWYWGQGTQVTVSSA
B11: BP2A6 Nb-huFc (Fc fusion)
chain: EVQLQASGGGFVQPGGSLRLSCAASGQTFSHYIMGWFRQAPGKEREFVSAISAGQGHATYYADSVKGRFTISRDNSKNTVYLQMNSLRAEDTATYYCAKYQDTIAPLYWGQGTQVTVSS
B12: KP1B5 Nb-huFc (Fc fusion)
chain: EVQLQASGGGFVQPGGSLRLSCAASGFTFDWSAMGWFRQAPGKEREFVSAISSSTSESTTYADSVKGRFTISRDNSKNTVYLQMNSLRAEDTATYYCATYYGGKTVEQDFYWGQGTQVTVSS
B13: BP2H9 Nb-huFc (Fc fusion)
chain: EVQLQASGGGFVQPGGSLRLSCAASGQTFTHVPMGWFRQAPGKEREFVSAISDTSGFETYYADSVKGRFTISRDNSKNTVYLQMNSLRAEDTATYYCAWAYDQFNWNYWGQGTQVTVSS

Each binder was assayed against T1, SARS-COV-2 Wuhan (WT) RBD (SARS-COV-2, UniProt P0DTC2 319-541) (assay: not given).

| Binder | Kd |
| --- | --- |
| B1 | 0.315 nM |
| B2 | 1.28 nM |
| B3 | 4.46 nM |
| B4 | 0.119 nM |
| B5 | 0.133 nM |
| B6 | 0.548 nM |
| B7 | 1.09 nM |
| B8 | 0.266 nM |
| B9 | 0.585 nM |
| B10 | 9.51 nM |
| B11 | 0.0766 nM |

What follows are binders tested against T2, SARS-COV-2 Delta RBD (SARS-COV-2, UniProt P0DTC2 319-541) (assay: not given).

| Binder | Kd |
| --- | --- |
| B3 | 62.6 nM |
| B4 | 25.5 nM |
| B5 | 33.3 nM |
| B10 | 1.91 nM |

Target: T1, SARS-COV-2 Wuhan (WT) RBD
Assay: not given
Remark: another data set of the same source

| Binder | Kd |
| --- | --- |
| B8 | 371 nM |

Target: T1, SARS-COV-2 Wuhan (WT) RBD
Assay: not given
Remark: another data set of the same source

| Binder | Kd |
| --- | --- |
| B11 | 149 nM |

The binders below were run against T3, SARS-COV-2 spike, Beta variant (B.1.351) (SARS-COV-2, UniProt P0DTC2 14-1273) (assay: cell-based or functional assay).

| Binder | EC50, neutralization of spike pseudotyped virus |
| --- | --- |
| B2 | 198 nM |
| B5 | 338 nM |
| B6 | 4.32 nM |
| B7 | 627 nM |
| B9 | 0.12 nM |
| B11 | 0.34 nM |

What follows are binders tested against T4, SARS-COV-2 spike, Gamma variant (P.1) (SARS-COV-2, UniProt P0DTC2 14-1273) (assay: cell-based or functional assay).

| Binder | EC50, neutralization of spike pseudotyped virus |
| --- | --- |
| B2 | 533 nM |
| B5 | 1.07 nM |
| B6 | 3.95 nM |
| B7 | 13.5 nM |
| B9 | 0.26 nM |
| B11 | 0.63 nM |

What follows are binders tested against T5, SARS-COV-2 spike, Delta variant (B.1.617.2) (SARS-COV-2, UniProt P0DTC2 14-1273) (assay: cell-based or functional assay).

| Binder | EC50, neutralization of spike pseudotyped virus |
| --- | --- |
| B2 | 73.3 nM |
| B5 | 191 nM |
| B7 | 758 nM |
| B9 | 586 nM |
| B11 | 875 nM |

The binders below were run against T6, SARS-COV-2 spike, Lambda variant (C.37) (SARS-COV-2, UniProt P0DTC2 14-1273) (assay: cell-based or functional assay).

| Binder | EC50, neutralization of spike pseudotyped virus |
| --- | --- |
| B2 | 79.1 nM |
| B5 | 0.02 nM |
| B7 | 490 nM |
| B9 | 414 nM |
| B11 | 883 nM |

What follows are binders tested against T7, SARS-COV-2 spike, Mu variant (B.1.621) (SARS-COV-2, UniProt P0DTC2 14-1273) (assay: cell-based or functional assay).

| Binder | EC50, neutralization of spike pseudotyped virus |
| --- | --- |
| B2 | 7.18 nM |
| B5 | 0.83 nM |
| B6 | 26.1 nM |
| B7 | 1.92 nM |
| B9 | 1.54 nM |
| B11 | 2.53 nM |

Each binder was assayed against T8, SARS-COV-2 spike, Omicron variant (BA.1) (SARS-COV-2, UniProt P0DTC2 14-1273) (assay: cell-based or functional assay).

| Binder | EC50, neutralization of spike pseudotyped virus |
| --- | --- |
| B11 | 43.3 nM |

Target: T3, SARS-COV-2 spike, Beta variant (B.1.351)
Assay: cell-based or functional assay
Remark: another data set of the same source

| Binder | EC50, neutralization of spike pseudotyped virus |
| --- | --- |
| B1 | 4.44 nM |
| B3 | 411 nM |
| B12 | 482 nM |
| B4 | 203 nM |
| B8 | 3.5 nM |
| B13 | 0.21 nM |

Target: T4, SARS-COV-2 spike, Gamma variant (P.1)
Assay: cell-based or functional assay
Remark: another data set of the same source

| Binder | EC50, neutralization of spike pseudotyped virus |
| --- | --- |
| B1 | 3.73 nM |
| B3 | 408 nM |
| B12 | 214 nM |
| B4 | 80.2 nM |
| B8 | 3.68 nM |
| B13 | 0.26 nM |

Target: T5, SARS-COV-2 spike, Delta variant …
Assay: cell-based or functional assay
Remark: another data set of the same source

| Binder | EC50, neutralization of spike pseudotyped virus |
| --- | --- |
| B3 | 18.3 nM |
| B12 | 324 nM |
| B4 | 1.22 nM |
| B10 | 26.8 nM |

Target: T6, SARS-COV-2 spike, Lambda variant (C.37)
Assay: cell-based or functional assay
Remark: another data set of the same source

| Binder | EC50, neutralization of spike pseudotyped virus |
| --- | --- |
| B3 | 612 nM |
| B12 | 472 nM |
| B4 | 0.13 nM |

Target: T7, SARS-COV-2 spike, Mu variant (B.1.621)
Assay: cell-based or functional assay
Remark: another data set of the same source

| Binder | EC50, neutralization of spike pseudotyped virus |
| --- | --- |
| B1 | 466 nM |
| B3 | 305 nM |
| B12 | 367 nM |
| B4 | 2.02 nM |
| B8 | 6.97 nM |
| B10 | 25.1 nM |
| B13 | 922 nM |

Target: T8, SARS-COV-2 spike, Omicron variant (BA.1)
Assay: cell-based or functional assay
Remark: another data set of the same source

| Binder | EC50, neutralization of spike pseudotyped virus |
| --- | --- |
| B8 | 403 nM |

The binders below were run against T2, SARS-COV-2 Delta RBD (assay: ELISA titration (A450 against Nb-hFc ug/mL) on SARS-CoV-2 Delta RBD).

| Binder | binding result |
| --- | --- |
| B1 | no binding (tested: 10 ug/mL) |
| B2 | no binding (tested: 10 ug/mL) |
| B8 | no binding (tested: 10 ug/mL) |
| B9 | no binding (tested: 10 ug/mL) |
| B11 | no binding (tested: 10 ug/mL) |
